Experimental data from EP4725501A1.
pEC50: −log10 of the molar value. Read-outs that look alike come from different tables or passages of the source.

What was measured:
[1] = molecular target: MASP3 in Factor D depleted human plasma (human) (UniProt P48740); assay: cell-based or functional assay
human MASP3-His (human) [2] = molecular target: human MASP3-His (human) (UniProt P48740); assay: cell-based or functional assay
[3] = molecular target: MASP3 in Factor D depleted human plasma (human) (UniProt P48740); assay: cell-based or functional assay; remark: listed apart in the source
human MASP3-His (human) [4] = molecular target: human MASP3-His (human) (UniProt P48740); assay: ELISA; antigen coated 0.1 ug/well, antibody titrated, goat anti-human IgG-HRP
[5] = molecular target: monkey MASP3-His (monkey); assay: as above
mouse MASP3-His (mouse) = mouse MASP3-His (mouse) (UniProt P98064); assay: as above
mouse MASP3-His (mouse), sequence (P98064 other isoform, or with tags, fused parts or gaps): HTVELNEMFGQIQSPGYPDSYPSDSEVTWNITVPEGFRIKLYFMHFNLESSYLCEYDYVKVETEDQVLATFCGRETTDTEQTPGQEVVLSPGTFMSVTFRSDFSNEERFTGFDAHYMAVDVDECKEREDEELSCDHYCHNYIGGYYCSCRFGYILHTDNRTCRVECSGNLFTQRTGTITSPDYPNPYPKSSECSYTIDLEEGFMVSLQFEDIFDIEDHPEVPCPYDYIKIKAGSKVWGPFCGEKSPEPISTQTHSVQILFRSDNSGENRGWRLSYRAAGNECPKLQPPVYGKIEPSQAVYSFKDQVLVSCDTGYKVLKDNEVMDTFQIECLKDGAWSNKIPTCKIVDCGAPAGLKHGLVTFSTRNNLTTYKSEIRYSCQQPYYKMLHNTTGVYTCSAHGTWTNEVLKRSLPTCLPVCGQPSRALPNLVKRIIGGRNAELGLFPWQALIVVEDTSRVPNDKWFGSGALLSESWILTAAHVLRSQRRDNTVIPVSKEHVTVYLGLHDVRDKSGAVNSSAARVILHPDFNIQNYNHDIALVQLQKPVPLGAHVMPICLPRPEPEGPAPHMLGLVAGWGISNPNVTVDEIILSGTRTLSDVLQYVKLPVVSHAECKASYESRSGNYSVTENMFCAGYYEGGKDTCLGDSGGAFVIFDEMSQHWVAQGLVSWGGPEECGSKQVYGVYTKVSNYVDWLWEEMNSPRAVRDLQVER

human MASP3-His (human), sequence (P48740 other isoform, or with tags, fused parts or gaps): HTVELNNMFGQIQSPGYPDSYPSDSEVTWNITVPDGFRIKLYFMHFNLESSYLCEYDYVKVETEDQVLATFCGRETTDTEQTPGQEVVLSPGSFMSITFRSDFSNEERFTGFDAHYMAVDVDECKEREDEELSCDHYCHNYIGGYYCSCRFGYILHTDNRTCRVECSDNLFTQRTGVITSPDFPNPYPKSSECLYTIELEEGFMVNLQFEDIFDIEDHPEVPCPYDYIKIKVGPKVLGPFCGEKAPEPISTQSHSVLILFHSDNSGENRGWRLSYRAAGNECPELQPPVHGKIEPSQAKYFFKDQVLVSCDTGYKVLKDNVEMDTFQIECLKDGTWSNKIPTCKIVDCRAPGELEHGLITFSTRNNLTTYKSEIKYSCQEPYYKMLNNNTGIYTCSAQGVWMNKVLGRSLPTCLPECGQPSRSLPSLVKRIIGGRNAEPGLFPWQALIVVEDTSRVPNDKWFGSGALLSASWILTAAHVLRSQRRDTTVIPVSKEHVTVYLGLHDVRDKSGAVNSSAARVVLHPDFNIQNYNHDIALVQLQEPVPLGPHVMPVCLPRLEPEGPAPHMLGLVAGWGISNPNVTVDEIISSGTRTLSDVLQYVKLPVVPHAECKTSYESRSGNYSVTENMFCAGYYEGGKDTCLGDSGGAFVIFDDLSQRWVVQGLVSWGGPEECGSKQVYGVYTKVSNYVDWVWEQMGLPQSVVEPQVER
MASP3 in Factor D depleted human plasma (human), sequence (P48740 other isoform, or with tags, fused parts or gaps): as above

OMS906 (antibody) gave an Inhibit hemolysis IC50 [1] of 17.1 nM, an IC50 (nM), inhibition of MASP3 enzyme activity (cleavage of fluorescent tripeptide Boc-Val-Pro-Arg-AMC) (human MASP3-His (human) [2]) of 200 nM and an Inhibit hemolysis IC50 [3] of 13 nM. It also gave a pEC50 (human MASP3-His (human) [4]) of 9.01, a pEC50 [5] of 8.53 and a pEC50 (mouse MASP3-His (mouse)) of 8.27.
